Assay results published in patent US20130251731A1, “Tau Acetylation in the Pathogenesis of Alzheimers Disease and Other Related Tauopathies” (THE TRUSTEES OF THE UNIVERSITY OF PENNSYLVANIA, priority 2012, published 2013).

target: microtubules of transfected QBI-293 cells; assay: cell-based or functional assay

% MT bundling from tau-expressing cells	Substance
40 % bundling	tau-T40 K280Q mimetic (from UniProt P10636 1-441)
55 % bundling	wild-type tau-T40 (2N4R), not acetylated (from UniProt P10636 2-441)
50 % bundling	tau-4KR non-mimetic mutant (T40 K163/280/281/369R) (from UniProt P10636 1-441)
7 % bundling	tau-4KQ acetylation mimetic (T40 K163/280/281/369Q) (from UniProt P10636 1-441)
